Results: patent US11001846B2, “Aptamers, nucleic acid molecules, polynucleotides, synthetic antibodies compositions for detecting PRRS viruses and treating PRRS virus infection” (AEROVIRUS TECHNOLOGIES INC., priority 2015, dated 2021)
Several values for one entry are separate records, joined by “and”; a condition that tells them apart may be missing. Equal values may be shown once.

Legend:
NVSL PRRS virus = assay: MTT assay, in vitro protection of PAMs or MARC-145 cells from NVSL infection; format: cell-based, PRRSV; settings: 500 pmole, compared to non-infected MARC-145 cells, FIG. 9b
Method: PAMs or MARC-145 cells were plated in 96 well plates (7×10^4/well) one day prior to the assay. Cells were washed twice with Dulbecco's phosphate buffered saline (DPBS) prior to an one (1) hour incubation with Hank's balanced salt solution (HBSS) supplemented with 25 mM HEPES and 4 mM sodium bicarbonate (pH 7.3) including 500TCID50 of LHVA-3 or 500TCID50 of NVSL in the presence or absence of the indicated aptamer concentration. Following infection, cells were incubated in growth medium at 37° C. for 72 hours. MTT assay was performed by adding 4 mg/ml MTT (3-[4,5-Dimethylthiazol-2-yl]-2,5-diphenyltetrazolium bromide dissolved in PBS to the cell cultures and incubation at 37° C. for 3 hours. Plates were then centrifuged at 800×g for 10 min. Supernatants were aspirated and the formazan dye was dissolved in 150 μl/well of isopropyl alcohol, and O.D. values were determined with an ELISA reader at 570 nm.
In Vitro Viral Protection Prior to Viral Infection PAMs or MARC-145 cells were plated on 96 well plates (7×10^4/well) 24 hours prior to the experiment. Each well was washed twice with DPBS prior to treating the cells with various amounts of A505 (12.5 to 2000 pmole) at 37° C. for the indicated time points. Cells were then washed twice with DPBS and infected with 500 TCID50 LHVA-3 (or NVSL or VR-2332 or Lelystad) for 1 hour in enriched HBSS. […]

LHVA-3 PRRS virus = assay: MTT assay, in vitro protection of PAMs or MARC-145 cells from LHVA-3 infection; format: cell-based, PRRSV; settings: for protective effect when added after virus incubation: FIG. 9d
Method: PAMs or MARC-145 cells were plated in 96 well plates (7×10^4/well) one day prior to the assay. […] Following infection, cells were incubated in growth medium at 37° C. for 72 hours. MTT assay was performed by adding 4 mg/ml MTT (3-[4,5-Dimethylthiazol-2-yl]-2,5-diphenyltetrazolium bromide dissolved in PBS to the cell cultures and incubation at 37° C. for 3 hours. Plates were then centrifuged at 800×g for 10 min. Supernatants were aspirated and the formazan dye was dissolved in 150 μl/well of isopropyl alcohol, and O.D. values were determined with an ELISA reader at 570 nm.
In Vitro Viral Protection Prior to Viral Infection PAMs or MARC-145 cells were plated on 96 well plates (7×10^4/well) 24 hours prior to the experiment. Each well was washed twice with DPBS prior to treating the cells with various amounts of A505 (12.5 to 2000 pmole) at 37° C. for the indicated time points. […] Following incubation, cells were transferred to growth medium and incubated at 37° C. for 72 hours. Thereafter an MTT assay was implemented as described.
In Vitro Viral Protection Following Viral Infection—PAMs or MARC-145 cells were plated on 96 well plates (7×10^4/well) 24 hours prior to viral infection. Viral infection was effected as described above. Infected cells were gently washed with DPBS for 3 times. Cells were then treated with various amounts of A505 (12.5 to 2000 pmole) for 1 hour at 37° C. Following incubation, cells were transferred to growth medium and incubated at 37° C. for 72 hours. Thereafter an MTT assay was implemented as described.

LHVA-93-3 PRRS virus [1] = assay: Light microscopy and immunofluorescence of infected cells; format: cell-based, PRRSV
LHVA-93-3 PRRS virus [2] = assay: In-vivo lung virus titer, LHVA-93-3, comparison with control oligonucleotide and Tilmicosin (Example 4); set-up: species or system swine; settings: intra-nasal
Method: Swine were inoculated intranasally with sub-lethal infectious fluid containing 40TCID50/ml PRRS virus (LHVA-93-3) with or without 2.5 nmole A505 aptamer for different time intervals. Pig body weight was monitored for 2 weeks. Viral titer in the lungs was determined by the CPE titration method (OIE Terrestrial Manual—May 2015, Chapter 2.8.7—Porcine Reproductive and Respiratory Syndrome, section 1.1.3). Other pigs were sacrificed 6 days following viral inoculation and lungs were removed and homogenized in PBS 0.1% BSA (10% w/v). Following homogenization, samples were centrifuged to remove debris and stored at −80° C.
The cells/viruses were incubated for 2-5 days and observe daily for a CPE. At day 2, seed macrophages in new microtitre plates. Fifty (50) μl of the supernatants were transferred from the plates of the first passage to the corresponding wells of the freshly seeded plates (second passage). The wells were incubated for 2-5 days and observed daily for a CPE. The results of the CPE assays were presented as log TCID50.
Tilmicosin (Pulmotil®) was purchased from Eli Lilly (Elanco®), Canada.
Were implemented as described hereinabove. A dose of 15 ug/Kg of A505 was used.
The ability of the A505 aptamer to inhibit PRRSV infection was also compared to that of one of the currently available “anti-PRRSV” drugs, the antibiotic Tilmicosin. To this end, both A505 and Tilmicosin were administered once, together with the virus, using the intra-nasal route. As is shown in Table 2 below, a dose of 60 mg/pig of Tilmicosin (1 mg/kg body weight) reduced virus titer by 0.42 log TCID50, representing a 2.6-fold reduction in virus burden. This is in comparison to a reduction by 1.21 log TCID50 affected by A505 in this particular experiment (over 10 fold reduction in virus burden).

B1: A505: ssDNA aptamer binding type 2 PRRSV M-S-S-GP5 complex (nucleic acid)
DNA: GGGCGACCCTGAAGAGTTTGTAATCTGCGATTTTAAAGTTGAGTCGTCGCGAAACGGTGAAAGCCGTAGGTTGCCC
modifications: DNA, backbone and methylation of C not given here
protection against infection of the cells (NVSL PRRS virus): ~70%
survival rate of cells pre-incubated with aptamer then washed before infection (LHVA-3 PRRS virus; 500 pmole for 30 min or 60 min, repeated washing, then virus, FIG. 9c): no significant difference between the survival rate of non-treated and treated cells
protection against infection of the cells (LHVA-3 PRRS virus; 500 pmole, LHVA-3, compared to non-infected MARC-145 cells, FIG. 9b): ~60%
protective effect when added after virus incubation (LHVA-3 PRRS virus; 500 TCID50 LHVA-93-3 for 30 min prior to 500 pmole aptamer, vs infected cells): highly significant difference
protective effect when added after virus incubation (LHVA-3 PRRS virus; 500 TCID50 LHVA-93-3 for 60 min prior to 500 pmole aptamer): not significant
virus-associated cell-death (LHVA-3 PRRS virus; cells treated with aptamer prior to viral infection, FIG. 9a): significant reduction in virus-associated cell-death
cell morphology of infected cells, light microscopy (LHVA-93-3 PRRS virus [1]; MARC-145 cells, virus in the presence of aptamer, FIG. 10b): destruction was inhibited and the cell morphology was largely conserved
viral presence by immunofluorescence (LHVA-93-3 PRRS virus [1]; two days incubation with virus and aptamer, FIG. 10e): almost entirely prevented
Reduction Factor (LHVA-93-3 PRRS virus [2]; Table 2, administered once with the virus): 17.1
Δ (log TCID50), reduction of virus titer (LHVA-93-3 PRRS virus [2]; administered once together with the virus, Tilmicosin 60 mg/pig (1 mg/kg), A505 15 ug/Kg): 1.21 log TCID50 and 1.23 log TCID50
reduction in virus burden (LHVA-93-3 PRRS virus [2]; administered once with the virus): over 10 fold
